This is an account of results in patent publication EP4628508A1 (Biodlink Biopharm Co., Ltd., dated 2025).

Numbering of substitutions follows the chain as printed. Bounds are passed on as bounds.

By EC50 is commonly meant the midpoint of the concentration-response curve. Usually Kd stands for the concentration at which binding is half-saturated. A lower Kd goes with tighter binding. In general, kon refers to a measure of how fast the partners come together. Higher therefore signals faster complex formation.

Sequences and labels used below:
B1: PR302950 (antibody, human IgG1, kappa, V domains shown)
VH: QVQLQESGPGLVKPSGTLSLTCAVSGGSISSSNWWSWVRQPPGKGLEWIGEVYHSGSTNYNPSLKSRVTISVDKSQNQFSLKLTSVTAADTAVYYCARVTGNKDYYYYDLDVWGQGTTVTVSS
VL: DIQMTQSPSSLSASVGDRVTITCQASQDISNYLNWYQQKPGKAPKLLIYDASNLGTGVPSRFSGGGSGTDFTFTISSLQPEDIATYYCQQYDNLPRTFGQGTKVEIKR
notes: IgG1; also called PR302950 (IgG1)
B2: PR302951 (antibody, human IgG1, kappa, V domains shown)
VH: EVQLLESGGGLVQPGGSLRLSCAASRFTFSTYAMSWVRQAPGKGLEWVSSISGSGFNTYYADSVKGRFTISSDSSKNTLYLQMNSLRAEDTAVYYCAKDRQWLVSSFDYWGQGTLVTVSS
VL: DIQMTQSPSSLSASVGDRVTITCQASQDISNYLNWYQQKPGKAPKLLIYDASNLETGVPSRFSGSGSGTDFTFTISSLQPEDIATYYCQQYDNLITFGQGTRLEIKR
notes: IgG1; also called PR302951 (IgG1)
B3: PR302702 (antibody, human IgG1, kappa, V domains shown)
VH: B2 VH with R26G, S35T, G55D, S72R, S74I, R100Q, Q101E, S105R, D108H, Y109H
VL: DIQMTQFPSSLFAFVGDRVTITCQASQDISNYLNWYQQKAGKAPKLLINDASNLETGVPSRFSGSGFGTDFTFTISSLQPEDFATYYCQQYENLPTFGGGTKVEIKR
notes: IgG1; also called PR302702 (IgG1)
B4: PR302949 (antibody, human IgG1, kappa, V domains shown)
VH: B2 VH with R26G, T31S, G55D, N57S, S72R, S74T, Y109F, T114A
VL: B2 VL
notes: IgG1; also called PR302949 (IgG1)
B5: PR301366 (antibody, V domains shown)
VH: EVQLLESGGGLVQPGGSLRLSCAASGFTFSNYAMNWVRQAPGKGLEWVSVISVSGGSTYYADSVKGRFTISRDNSKNTLYLQMNSLRAEDTAVYYCAKDYYYDSGSYYDSFFDYWGQGTLVTVSS
VL: not shown
notes: also called control antibody PR301366 (Five Prime: WO2020014132)
B6: PR302934 (antibody, human IgG1, kappa, V domains shown)
VH: QVQLQQWGAGLLKPSETLSLTCAVYGGSFSGYYWSWIRQTLGKGLEWIGEVSHSGGTNYNPSLKSRVTISVDTSKNQFSLKLSSVTAADTAVYYCARSPYYGDYMYVFDIWGQGTMVTVSS
VL: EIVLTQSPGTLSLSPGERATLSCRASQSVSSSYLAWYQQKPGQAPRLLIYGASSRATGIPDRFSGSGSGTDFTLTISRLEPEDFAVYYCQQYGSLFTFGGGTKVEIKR
notes: IgG1; also called PR302934 (IgG1)
B7: PR302927 (antibody, human IgG1, kappa, V domains shown)
VH: EVQLLESGGGLVQPGGSLRLSCAASGFTFSSYAMSWVRQAPGKGLEWVSTINHIGDSTYYADSVKGRFTISRDNSKNTLYLQMNSLRAEDTAVYYCAKDQWFGVFDYWGQGTLVTVSS
VL: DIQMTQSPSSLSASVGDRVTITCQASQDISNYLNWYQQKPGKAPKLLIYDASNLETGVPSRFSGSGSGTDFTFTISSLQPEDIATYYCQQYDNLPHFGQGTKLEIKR
notes: IgG1; also called PR302927 (IgG1)
B8: PR304683 (antibody, V domains shown)
VH: QVQLVQSGAEVKKPGASVKVSCKASGYTFTDYYINWVRQAPGQGLEWMGNVNPNDGGTTYNQKFKGRVTMTTDTSTSTAYMELRSLRSDDTAVYYCARREIYFYGTIYYYAMDYWGQGTLVTVSS
VL: DIQLTQSPSFLSASVGDRVTITCRASESVDYYGNSFMYWYQQKPGKAPKLLIYFASNLESGVPSRFSGSGSGTEFTLTISSLQPEDFATYYCQQNNEDPWTFGGGTKVEIK
notes: also called Control antibody PR304683 (NGM: WO2021127200); NGM707
B9: PR302264-2 (antibody, human IgG4 S228P, kappa, V domains shown)
VH: QVQLQQWGAGLLKPSETLSLTCAVYGGSLSGYYWSWIRQPPGKGLEWIGEIAHSGGTNYNPSLKSRVTISVPTSKNQFSLKLTSVTAADTAVYYCARGQQQLDWYFDLWGRGTLVTVSS
VL: EIVMTQSPATLSVSPGERATLSCRASQNIYSHLVWYQQKPGQAPRLLIYGASTRATGIPARFSGSGSGTEFTLTITSLQSEDFTVYYCQQYNDWPPITFGQGTRLEIRR
notes: PTM variant of PR302264, IgG4; also called PR302264-2 (IgG4)
B10: PR302282 (antibody, human IgG1, kappa, V domains shown)
VH: QVQLVESGGTVVQSGRSLRLSCAASGFTFSSYGMHWVRQAPGKGLEWVAGMWYDGNYKYYADSVKGRFTISRDNSKNTLSLQMNSLRAEDTAVYYCARDSPIGVFDYWGQGTLVTVSS
VL: B2 VL
notes: IgG1; also called PR302282 (IgG1)
B11: PR302259 (antibody, human IgG1, kappa, V domains shown)
VH: EVQLLESGGGLVQPGGSLRLSCAVSGFTFSSYAMSWVRQAPGKGLEWVSAISDNAGSTYYADSVKGRFTISRDNSKNTLHLQMNSLRAEDTAVYSCAKERQWLVLGVMDAWGQGASVTVSS
VL: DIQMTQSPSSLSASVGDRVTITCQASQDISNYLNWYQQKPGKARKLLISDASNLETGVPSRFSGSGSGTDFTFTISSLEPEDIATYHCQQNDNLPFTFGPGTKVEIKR
notes: IgG1; also called PR302259 (IgG1)
B12: PR302264 (antibody, human IgG1, kappa, V domains shown)
VH: B9 VH with A52N
VL: B9 VL
notes: IgG1; also called PR302264 (IgG1)
B13: PR302264-3 (antibody, human IgG4 S228P, kappa, V domains shown)
VH: B9 VH with A52T
VL: B9 VL
notes: PTM variant of PR302264, IgG4; also called PR302264-3 (IgG4)
B14: PR302261 (antibody, human IgG1, kappa, V domains shown)
VH: EVQLLESGGGLVQSGGSLRLSCAASGFTFSSYAMSWVRQAPGKGLGWVSTISGSGGSAYYADSVKGRFTVSRDNSKKTLYLQMNSLRAEDTAVYFCAILSGDDAFDIWGQGTMVTVSS
VL: DVVMTQSPLSLPVTPGEPASISCRSSQSLLRGNGYNYLDWYLQKPGQSPQLLIYLGSNRASGVPDRFSGSGSGTDFTLKISRVEAEDVGIFYCMQALQSPLTFGGGTKVEIKR
notes: IgG1; also called PR302261 (IgG1)
B15: PR001795 (antibody, V domains shown)
VH: EVQLQQWGAGLLKPSETLSLTCAVYGGSFSGYYWSWIRQPPGKGLEWIGEINHAGSTNYNPSLKSRVTISVDTSKNQFSLKLSSVTAADTAVYYCARLPTRWVTTRYFDLWGRGTLVTVSS
VL: ESVLTQPPSVSGAPGQRVTISCTGSSSNIGAGYDVHWYQQLPGTAPKLLIYGDSNRPSGVPDRFSVSKSGASASLAITGLQAEDEADYYCQSFDNSLSAYVFGGGTQLTVL
notes: also called control antibody PR001795 (Merck: US20180298096); MK-4830

T8 sequence (Q8N6C8 24-439 limits assumed): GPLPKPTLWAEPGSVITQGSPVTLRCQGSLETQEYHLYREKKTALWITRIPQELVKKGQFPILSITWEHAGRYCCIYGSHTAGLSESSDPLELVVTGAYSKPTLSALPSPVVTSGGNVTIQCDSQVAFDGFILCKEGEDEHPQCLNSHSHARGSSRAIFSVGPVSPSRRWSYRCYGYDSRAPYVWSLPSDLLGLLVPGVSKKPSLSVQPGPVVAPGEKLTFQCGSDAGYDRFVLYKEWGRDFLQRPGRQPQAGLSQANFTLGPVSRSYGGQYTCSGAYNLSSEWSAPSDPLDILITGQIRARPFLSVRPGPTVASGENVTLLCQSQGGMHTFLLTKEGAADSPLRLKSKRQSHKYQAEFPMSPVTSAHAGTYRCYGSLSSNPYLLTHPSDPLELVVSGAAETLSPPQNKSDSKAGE
T3 sequence (Q6PI73 24-447 limits assumed): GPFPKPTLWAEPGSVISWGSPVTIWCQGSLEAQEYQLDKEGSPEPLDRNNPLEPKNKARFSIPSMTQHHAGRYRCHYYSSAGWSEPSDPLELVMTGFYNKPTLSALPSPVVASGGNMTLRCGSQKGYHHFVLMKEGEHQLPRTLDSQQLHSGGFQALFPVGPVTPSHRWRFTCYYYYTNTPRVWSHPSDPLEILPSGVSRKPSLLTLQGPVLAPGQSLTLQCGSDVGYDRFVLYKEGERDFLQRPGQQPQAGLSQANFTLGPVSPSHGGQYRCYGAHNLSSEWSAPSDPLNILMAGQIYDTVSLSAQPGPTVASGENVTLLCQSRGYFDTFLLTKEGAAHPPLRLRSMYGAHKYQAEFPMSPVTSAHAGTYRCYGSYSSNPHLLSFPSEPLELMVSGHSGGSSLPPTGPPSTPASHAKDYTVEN

In one assay the target is T1, human ILT4 expressed on the surface of CHO cells (CHO-huILT4) (human, UniProt Q8N423 22-597).
T1 construct: CHO cells infected with lentivirus lenti-huILT4; also called CHO-ILT4; CHO-huILT4 cells
T1 sequence (Q8N423 other isoform, or with tags, fused parts or gaps limits assumed): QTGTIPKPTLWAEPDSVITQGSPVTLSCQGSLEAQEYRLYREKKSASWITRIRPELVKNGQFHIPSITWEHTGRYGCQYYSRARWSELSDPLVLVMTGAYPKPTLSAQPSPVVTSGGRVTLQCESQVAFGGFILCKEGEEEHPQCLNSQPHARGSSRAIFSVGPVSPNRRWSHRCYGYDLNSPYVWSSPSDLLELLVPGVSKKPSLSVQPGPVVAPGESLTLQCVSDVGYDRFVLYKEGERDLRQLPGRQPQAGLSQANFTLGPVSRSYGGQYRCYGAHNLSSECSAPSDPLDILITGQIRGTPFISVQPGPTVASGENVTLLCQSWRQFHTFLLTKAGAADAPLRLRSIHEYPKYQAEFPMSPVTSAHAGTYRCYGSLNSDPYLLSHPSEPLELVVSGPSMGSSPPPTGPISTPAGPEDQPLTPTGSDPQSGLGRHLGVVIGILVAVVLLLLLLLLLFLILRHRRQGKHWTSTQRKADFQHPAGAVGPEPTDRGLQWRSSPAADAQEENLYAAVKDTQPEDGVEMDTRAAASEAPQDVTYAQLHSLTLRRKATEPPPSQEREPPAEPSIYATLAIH
Put plainly: flow cytometry on CHO-huILT4 cells. For orientation: In flow cytometry, cells or beads pass a laser one at a time.
In turn, B1 yielded an EC50 of 1.09 nM.

B2 yielded an EC50 of 1.05 nM.

In turn, B3 gave an EC50 of 1.58 nM.

Consider B4, for which a half-maximal effect (EC50) was put at 0.822 nM.

On to B5, for which it took 1.07 nM to reach a half-maximal effect (EC50).

For B6, the 50% effective concentration (EC50) was 1.13 nM.

Consider B7, for which a half-maximal effect (EC50) was put at 0.805 nM.

The next assay deals with T2, human LILRA4 (R&D System, Cat: 8914-T4-050) (human, UniProt P59901 24-446).
T2 construct: Bought protein; also called LILRA4 (ILT7); ILT7
T2 sequence (P59901 24-446 limits assumed): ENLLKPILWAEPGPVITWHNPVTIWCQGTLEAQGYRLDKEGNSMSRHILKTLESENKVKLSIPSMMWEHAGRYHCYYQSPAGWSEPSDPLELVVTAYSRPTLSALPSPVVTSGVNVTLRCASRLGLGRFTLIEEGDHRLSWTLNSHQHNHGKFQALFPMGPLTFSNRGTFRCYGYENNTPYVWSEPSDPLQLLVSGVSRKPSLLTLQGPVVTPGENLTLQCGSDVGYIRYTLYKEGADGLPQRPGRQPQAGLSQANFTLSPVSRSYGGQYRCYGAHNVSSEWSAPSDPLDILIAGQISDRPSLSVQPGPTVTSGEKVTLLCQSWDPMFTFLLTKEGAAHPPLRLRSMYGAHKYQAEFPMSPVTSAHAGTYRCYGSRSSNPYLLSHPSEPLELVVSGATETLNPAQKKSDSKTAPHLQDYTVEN
Kind of assay: ELISA, protein coated at 1 µg/mL, antibody at 100 nM, OD450.
Consider B6, for which the binding result is recorded as “binds”.

A further assay has as its target T3, human LILRA6 (R&D System, Cat: 9088-T4-050) (human, UniProt Q6PI73 24-447).
T3 construct: Bought protein; also called LILRA6 (ILT8); ILT8
The assay is described as above.
Take B6: the binding result was “binds”.

The target in another assay is T4, human ILT4-ECD protein (human, UniProt Q8N423 22-460).
T4 construct: also called HuILT4; LILRB2 (ILT4)
T4 sequence (Q8N423 other isoform, or with tags, fused parts or gaps limits assumed): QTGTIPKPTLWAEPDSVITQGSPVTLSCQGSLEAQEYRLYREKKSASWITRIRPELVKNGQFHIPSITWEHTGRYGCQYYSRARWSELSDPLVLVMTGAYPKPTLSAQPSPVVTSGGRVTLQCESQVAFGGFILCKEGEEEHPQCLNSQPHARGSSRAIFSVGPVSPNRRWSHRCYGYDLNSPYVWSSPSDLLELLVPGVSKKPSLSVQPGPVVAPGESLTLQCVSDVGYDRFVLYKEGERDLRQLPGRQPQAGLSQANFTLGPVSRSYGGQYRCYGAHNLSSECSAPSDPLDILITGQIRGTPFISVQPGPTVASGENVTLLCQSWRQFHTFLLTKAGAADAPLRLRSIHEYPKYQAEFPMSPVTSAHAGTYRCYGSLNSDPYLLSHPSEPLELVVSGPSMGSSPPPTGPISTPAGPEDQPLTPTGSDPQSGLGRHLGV
Described as above.
On to B8, for which the binding result is given as “binds”.

The target in a further assay is T5, human LILRA1 (R&D System, Cat: 9226-T4-050) (human, UniProt O75019 17-461).
T5 construct: Bought protein; also called LILRA1 (LIR6); LIR6
T5 sequence (O75019 17-461 limits assumed): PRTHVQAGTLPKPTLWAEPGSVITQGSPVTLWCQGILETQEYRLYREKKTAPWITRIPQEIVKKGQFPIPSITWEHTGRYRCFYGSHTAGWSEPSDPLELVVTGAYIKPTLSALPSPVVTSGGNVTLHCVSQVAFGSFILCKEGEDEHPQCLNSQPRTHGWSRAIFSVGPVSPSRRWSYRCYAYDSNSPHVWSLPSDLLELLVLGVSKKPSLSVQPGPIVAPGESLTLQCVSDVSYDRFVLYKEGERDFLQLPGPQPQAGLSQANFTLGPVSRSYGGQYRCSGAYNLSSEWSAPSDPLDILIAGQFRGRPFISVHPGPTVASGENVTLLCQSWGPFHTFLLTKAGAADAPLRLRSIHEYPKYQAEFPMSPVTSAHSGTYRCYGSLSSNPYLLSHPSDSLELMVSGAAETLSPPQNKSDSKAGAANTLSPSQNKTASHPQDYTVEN
The assay is described as above.
On to B8, for which the binding result is “binds”.

For B6, the binding result is “binds”.

For the molecule B9, the binding result was “binds”.

In another assay the target is T6, human ILT2-ECD protein (human, UniProt Q8NHL6 24-461).
T6 construct: also called LILRB1 (ILT2)
T6 sequence (Q8NHL6 24-461 limits assumed): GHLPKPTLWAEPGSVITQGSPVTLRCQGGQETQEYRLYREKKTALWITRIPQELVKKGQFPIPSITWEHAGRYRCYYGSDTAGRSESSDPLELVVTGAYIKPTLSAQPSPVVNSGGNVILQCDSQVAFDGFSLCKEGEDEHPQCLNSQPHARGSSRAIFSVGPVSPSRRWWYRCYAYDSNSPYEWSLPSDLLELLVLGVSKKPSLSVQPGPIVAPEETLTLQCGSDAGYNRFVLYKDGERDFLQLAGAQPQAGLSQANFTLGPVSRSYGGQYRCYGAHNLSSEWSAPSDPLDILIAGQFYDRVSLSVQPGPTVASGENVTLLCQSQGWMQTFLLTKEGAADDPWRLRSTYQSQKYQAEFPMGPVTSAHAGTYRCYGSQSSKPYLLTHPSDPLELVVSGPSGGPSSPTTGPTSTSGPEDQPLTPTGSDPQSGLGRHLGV
The description is as above.
Regarding B8, the binding result was “binds”.

Take B6: the binding result was “binds”.

Consider B9, for which the binding result is on record as “binds”.

Another assay addresses T7, human LILRB3 (R&D System, Cat: 9159-T5-050) (human, UniProt O75022 24-443).
T7 construct: Bought protein; also called LILRB3 (ILT5); ILT5
The assay is described as above.
Take B6: the binding result was “binds”.

The next assay concerns the target T8, human LILRA3 (R&D System, Cat: 9517-T4-100) (human, UniProt Q8N6C8 24-439).
T8 construct: Bought protein; also called LILRA3 (LIR4)
The description is as above.
Take B8: the binding result is “binds”.

Another assay deals with T4, human ILT4-ECD protein. Kind of assay: BLI (Octet RED96e), antibody on AHC biosensor, HuILT4 at 100/50/25 nM. For orientation: BLI is a label-free optical method that tracks binding on a fibre tip over time.
B2 returned a Kd of 0.256 nM and a kon of 915000 M⁻¹ s⁻¹.

Regarding B10, binding was characterised by a dissociation constant (Kd) of 0.124 nM and the kon stood at 648000 M⁻¹ s⁻¹.

For B4, the Kd was determined as 0.454 nM and the on-rate (kon) came out at 985000 M⁻¹ s⁻¹.

Molecule B6 had a Kd of 0.458 nM and an on-rate constant (kon) of 694000 M⁻¹ s⁻¹.

In turn, B11 showed a Kd below 0.001 nM and a kon of 773000 M⁻¹ s⁻¹.

Molecule B7 came in with a dissociation constant Kd of 0.884 nM and a kon of 980000 M⁻¹ s⁻¹.

For the molecule B9, the Kd was determined as 0.0767 nM and the kon is 472000 M⁻¹ s⁻¹.

Turning to B12, binding was put at a Kd of 0.242 nM and the kon is 462000 M⁻¹ s⁻¹.

Regarding B13, the Kd was 0.351 nM and the kon turned out to be 454000 M⁻¹ s⁻¹.

Turning to B14, the dissociation constant Kd amounted to 0.984 nM and the kon was determined as 520000 M⁻¹ s⁻¹.

The molecule B15 had an equilibrium dissociation constant (Kd) of 3.52 nM and an association rate constant (kon) of 431000 M⁻¹ s⁻¹.

In the next assay the target is T6, human ILT2-ECD protein. Kind of assay: ELISA, human ILT2-ECD coated at 1 µg/mL.
Take B13: the binding result is recorded as “binds”.
